Measured values as given in patent publication US20070065890A1, “Method for promoting formation of facultative heterochromatin” (priority 2005, published 2007).

Target: endogenous histone H1
Test: cell-based or functional assay

Work on “deletion mutant G4-ΔNSirT1 (Δ(1-268)) (from UniProt P04386 1-147)” yielded a derepression of the Gal4 pTK-Luc reporter (compare G4-SirT1 with G4-ΔN-SirT1) of 20%.
